These results are taken from article PMC4027180.

This data set relates to Stf76 (Sulfolobus islandicus plasmid-virus pSSVx). Description: ITC. Particulars: EMSA: 20 mM Tris-acetate pH 8.0, 50 mM K acetate, 10 mM Mg acetate, 1 mM DTT, 5% glycerol, 1 ug salmon sperm DNA, 50 C protein pre-incubation, binding 37 C …. Background: A gel shift assay detects complexes by their altered migration in electrophoresis.

In general, Kd refers to the equilibrium constant for the complex coming apart. Low readings indicate tighter binding, high ones weaker binding. In the case of “GGAAACAGTATTAATAAAGTGTTAATCCTATTACCC (double strand) [probe A' (35 bp-site A)]”, the Kd was determined as 0.04 µM.
